Data: patent US20220387487A1, “COMPOSITIONS AND METHODS FOR TREATMENT OF CANCER” (Aleta Biotherapeutics Inc., priority 2019, published 2022)
Read-outs that look alike come from different tables or passages of the source.

Tests used:
CLEC12A [1] = target: T1, CLEC12A (Homo sapiens, UniProt Q5QGZ9, K244Q); test: ELISA of fusion proteins, FMC63 coat, biotinylated CLEC12A detection; assay type: binding
T1 sequence (Q5QGZ9 65-265 K244Q): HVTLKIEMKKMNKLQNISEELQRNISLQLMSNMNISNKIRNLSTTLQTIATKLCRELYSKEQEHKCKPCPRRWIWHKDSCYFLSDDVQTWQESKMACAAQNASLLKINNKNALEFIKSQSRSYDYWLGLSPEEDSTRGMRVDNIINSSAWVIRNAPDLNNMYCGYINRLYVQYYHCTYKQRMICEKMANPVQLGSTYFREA

CLEC12A [2] = test: ELISA binding of fusion proteins (FMC63 coat, HRP-anti-His detection); parameters: species or system human; settings: purified fusion protein
Protocol: The binding of the biparatopic fusion proteins to CLEC12A was also examined by ELISA. […] The plate was left to incubate overnight at 4° C. The coated plate was blocked with TBS/0.3% nonfat dry milk (NFD) for 60 minutes at RT.

CLEC12A Q form = target: T2, CLEC12A Q form (Homo sapiens, UniProt Q5QGZ9, K244Q); test: Flow cytometry binding to HEK-293T cells transfected with CLEC12A amino acid 254 Q version; settings: FIG. 19
T2 construct: transfected with full-length CLEC12A (UniProt Q5QGZ9-1) cDNAs; expressed in transfected cells; host or cells: HEK-293T
T2 sequence (Q5QGZ9 1-275 isoform Q5QGZ9-1 K254Q): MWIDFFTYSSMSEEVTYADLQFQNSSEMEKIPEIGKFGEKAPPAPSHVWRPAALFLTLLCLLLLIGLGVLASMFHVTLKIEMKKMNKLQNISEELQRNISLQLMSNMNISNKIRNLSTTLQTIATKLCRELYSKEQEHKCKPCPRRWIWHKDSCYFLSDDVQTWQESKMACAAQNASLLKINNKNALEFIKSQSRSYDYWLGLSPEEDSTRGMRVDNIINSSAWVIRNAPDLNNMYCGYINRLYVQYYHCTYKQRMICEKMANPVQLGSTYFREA
Protocol: Given the unique binding properties of VHH clone 2H3 relative to the anti-CLEC12A scFv we tested the binding properties of a biparatopic fusion protein containing both the VHH clone 2H3 and an anti-CLEC12A scFv. HEK-293T cells were transfected with full-length CLEC12A (UniProt Q5QGZ9-1) cDNAs expressing the amino acid 254 “K” version of CLEC12A (GenScript) or a version with “Q” at this position generated by mutagenesis. The cells were removed with Accutase and washed with PBS, suspended in 50 μL FACS buffer (FB, PBS+1% BSA and 0.1% sodium azide) and blocked with human Fc block (Becton Dickinson) at room temperature for 10 minutes. Then, 50 μl of the purified fusion proteins #186, #330 or #357 diluted in FACS buffer (starting at 3 μg/ml with 3 fold dilutions) were added. The cell/fusion protein mixture was incubated for 30 minutes at 4° C. and then washed twice with FACS buffer. The cells were suspended in 100 μl of FACS buffer, stained with HIB19-PE (BioLegend […]), and incubated for 30 minutes at 4° C. The cells were washed twice with FACS buffer, fixed with a final concentration of 1% PFA in PBS (Thermo Scientific) and then analyzed by flow cytometry.

[3] = test system: CLL-1 positive U937 cells; test: Flow cytometry binding of fusion proteins to U937 cells (FMC63-PE detection); parameters: species or system human; settings: FIG. 20
Protocol: The ability of an expressed biparatopic construct comprising the fusion protein containing a CD19 variant, an anti-CLL-1 scFv, and an anti-CLL-1 VHH (#357) to bind CLL-1 positive U937 cells was evaluated relative to the binding of an expressed construct containing a fusion protein comprised of a CD19 variant and an anti-CLL-1 VHH (#330) and an expressed construct containing a fusion protein comprised of a wild type CD19 and an anti-CLL-1 scFv (#186). […] Approximately 5×10^5 cells were aliquoted per sample. The cells were spun, washed with FB, and then suspended in 100 μl of the biparatopic or monospecific fusion protein dilution (supernatant or purified starting at 10 μg/ml) in FB. The cell/fusion protein mixture was incubated for 30 minutes at 4° C. and then washed 2× with FB. […] After washing 2× with FB, the cells were fixed with a final concentration of 1% PFA in PBS (Thermo Scientific) and then analyzed by flow cytometry (Accuri C6, Becton-Dickinson).
To further confirm the binding and cytotoxicity capabilities of an expressed biparatopic fusion protein comprising a CD19 variant, an anti-CLL-1 scFv, and an anti-CLL-1 VHH, a construct was generated with the same features as construct #357 but lacking the HIS tag. […] The cells were washed twice with FACS buffer, fixed with a final concentration of 1% PFA in PBS (Thermo Scientific) and then analyzed by flow cytometry. […]

B1: #330: fusion protein comprised of a CD19 variant and an anti-CLL-1 VHH (2H3); SEQ ID NO:305 (protein)
chain: MEFGLSWVFLVALFRGVQCQVQLQESGGGLVQAGGSLRLSCVASGSIRSINVMGWYRQAPGKQRELVAACASDGNTYYADSVKGRFTISRDNAEKTVYLQMNNLKPDDTAVYYCDANSRGNYYSGQGTQVTVSSTSGPGGQGAGGGGSGGGGSGGGGSGGGGSPEEPLVVKVEEGDTAALWCLKGTSDGPTQQLTWSRESPLKPFLKYSLGVPGLGVHVRPDAISVVIRNVSQQMGGFYLCQPGPPSEKAWQPGWTVNVEGSGELFRWNVSDLGGLGCGLKNRSSEGPSSPSGKLMSPKLYVWAKDRPEIWEGEPPCLPPRDSLNQSLSRDLTVAPGSTLWLSCGVPPDSVSRGPLSWTHVHPKGPKSLLSLELKDDRPARDMWVMGTSLMLPRATAQDAGKWYCHRGNLTMSFHLEITARPSRHHHHHH
**Q.** How did the “CLEC12A binding EC50” value (CLEC12A [1]) turn out when B1 was run?
**A.** 1.4 ng/mL

**Q.** And the EC50 (CLEC12A [1]; read-out: CLEC12A binding EC50)?
**A.** 0.0299 nM

**Q.** And the EC50 (CLEC12A [2]; FMC63 coat, read-out: CLEC12A binding (ELISA EC50))?
**A.** 0.013 nM

**Q.** What about the EC50 (CLEC12A [2]; Table 8, read-out: EC50 of binding by ELISA) of the same molecule?
**A.** 0.01 nM

**Q.** What about the “binding to the Q form of CLEC12A” value (CLEC12A Q form) of the same molecule?
**A.** binds very well

B2: #440: fusion protein comprising an anti-CLEC12A VHH, an anti-CD33 scFv, and a CD19 ECD; SEQ ID NO:321 (protein)
chain: MEFGLSWVFLVALFRGVQCQVQLVQSGAEVKKPGESVKVSCKASGYTFTNYGMNWVKQAPGQGLEWMGWINTYTGEPTYADKFQGRVTMTTDTSTSTAYMEIRNLGGDDTAVYYCARWSWSDGYYVYFDYWGQGTSVTVSSGGGGSGGGGSGGGGSDIVMTQSPDSLTVSLGERTTINCKSSQSVLDSSTNKNSLAWYQQKPGQPPKLLLSWASTRESGIPDRFSGSGSGTDFTLTIDSPQPEDSATYYCQQSAHFPITFGQGTRLEIKGGGGSGGGGSGGGGSGGGGSQVQLQESGGGLVQAGGSLRLSCVASGSIRSINVMGWYRQAPGKQRELVAACASDGNTYYADSVKGRFTISRDNAEKTVYLQMNNLKPDDTAVYYCDANSRGNYYSGQGTQVTVSSTSGPGGQGAGGGGSGGGGSGGGGSGGGGSPEEPLVVKVEEGDTAALWCLKGTSDGPTQQLTWSRESPLKPFLKYSLGVPGLGVHVRPDAISVVIRNVSQQMGGFYLCQPGPPSEKAWQPGWTVNVEGSGELFRWNVSDLGGLGCGLKNRSSEGPSSPSGKLMSPKLYVWAKDRPEIWEGEPPCLPPRDSLNQSLSRDLTVAPGSTLWLSCGVPPDSVSRGPLSWTHVHPKGPKSLLSLELKDDRPARDMWVMGTSLMLPRATAQDAGKWYCHRGNLTMSFHLEITARPSRHHHHHH
**Q.** How did the “binding to U937 cells” value [3] turn out when B2 was run?
**A.** capable of binding to U937 cells
